{
  "source": "patent US20180094051A1",
  "about": "“METHOD FOR INHIBITING LYMPHANGIOGENESIS BY ADMINISTRATION OF AN INHIBITOR OF THE CXCL12 PATHWAY” (Tsinghua University, priority 2012, published 2018)",
  "molecules": {"B1": {"name": "VEGF-C: Vascular Endothelial Growth Factor C, the major pro-lymphangiogenesis factor; purchased from R&D Systems (protein, UniProt P49767 112-227, looked up)", "Vascular endothelial growth …": "AHYNTEILKSIDNEWRKTQCMPREVCIDVGKEFGVATNTFFKPPCVSVYRCGGCCNSEGLQCMNTSTSYLSKTLFEITVPLSQGPKPVTISFANHTSCRCMSKLDVYRQVHSIIRR"}},
  "format_in_all_cases": "cell-based",
  "key": {"[1]": {"system": "chemokine receptor CXCR4", "test": "qRT-PCR of chemokine receptor mRNA in VEGF-C-stimulated lymphatic endothelial cells", "settings": "VEGF-C-stimulated mouse lymphatic endothelial cells vs untreated cells", "description": "The isolation and extraction of total RNA from cells was performed using TRIZOL reagent (purchased from Invitrogen) following the standard operations as described in the reagent instructions. 1 mL of TRIZOL was added to the primary lymphatic endothelial cells (about 1×10^6) collected by centrifugation, repeatedly pipetted up and down for 30 times, and then set aside at room temperature for 5 minutes. After centrifugation at 10,000×g at 4° C. for 15 minutes, the supernatant was […] gently. 0.2 mL of chloroform was added to the supernatant, vortexed vigorously for about 15 seconds, and then set aside at room temperature for 3 minutes. […]\nThe synthesis of first strand cDNA was performed using a Fermentas kit (RevertAid™ First Strand cDNA Synthesis Kits) according to the standard instructions. […] The reverse transcription product was used in subsequent PCR and fluorescence quantitative RT-PCR, and the rest of the product was stored in a refrigerator at −80° C.\nFluorescence Quantitative Real-Time PCR was performed using a kit from Stratagene (Brilliant II SYBR® Green QRT-PCR Master Mix). The fluorescence quantitative PCR instrument was MX3000P (purchased from Stratagene), the fluorescence dye was SYBR Green, the volume of the reaction system was 20 μL, and the cycle number of the reaction was 40. […]"}, "[2]": {"system": "mouse lymphatic endothelial cells", "test": "Cell chemotaxis assay (Transwell)", "settings": "agent in outer chamber (CXCL12 1, 20, 100 ng/mL; VEGF-C 100 ng/mL), 6 hours", "description": "The migration ability of mouse lymphatic endothelial cells was assessed using 8-μm-pore Transwell bucket (filter membrane) (purchased from Costar). The transwell bucket was placed into a 24-well plate. Mouse primary lymphatic endothelial cells (mLECs) at passage 2 or 3 in good conditions were selected, and divided into five groups, four parallel samples for each group and approximately 2×10^4 cells for each parallel sample. The cells were digested with trypsin, resuspended in 200 μL of fresh serum-free endothelial cell culture medium (ECM, purchased from Sciencell), and then seeded into the inner chambers of the Transwell bucket. To each outer chamber was added 800 μL of serum-free endothelial cell culture medium mixed with 1 ng/mL, 20 ng/mL, 100 ng/mL of chemokine CXCL12 (purchased from R&D Systems), 100 ng/mL of VEGF-C (purchased from R&D Systems) and PBS control, respectively. The culture plate was placed into an incubator and incubated under 5% CO2 at 37° C. for 6 hours.\nAfter taking out the culture plate, the Transwell bucket was fixed in 4% paraformaldehyde solution for 15 minutes. The Transwell bucket was rinsed twice in PBS, stained with 0.1% crystal violet solution for 30 minutes, and then washed with PBS to remove the non-specifically bound crystal violet. The cells inside Transwell membrane were wiped off gently with medical cotton swabs. Note that the cells on the edge of the membrane should also be wiped off to avoid affecting cell counting. The Transwell bucket was placed under a microscope (Olympus IX71 microscope), and the cells migrated from the outer membrane were observed by microscopy. 8 fields per group were photographed randomly to count the cells.\nThe migration ability of mouse lymphatic endothelial cells was assessed using 8-μm-pore Transwell bucket (purchased from Costar). The bucket was placed into a 24-well plate. Mouse primary lymphatic endothelial cells (mLECs) at passage 2 or 3 in good conditions were selected, and divided into six groups, four parallel samples for each group, and approximately 2×10^4 cells for each parallel sample. The cells were digested with trypsin and resuspended in 200 μL, of fresh serum-free endothelial cell culture medium (ECM, purchased from Sciencell). The cells were pretreated for 30 minutes with dimethyl sulfoxide (DMSO) as a control, protein kinase B (Akt) antagonist LY294002 (10 μM, purchased from Sigma-Aldrich) and extracellular signal-regulated kinase (Erk) antagonist U0126 (10 μM, purchased from Sigma-Aldrich), respectively, and then seeded into the inner chambers of the Transwell bucket. […] The cells were stained and the number of the migrated cells was counted.\nThe migration ability of mouse lymphatic endothelial cells was detected by using 8-μm-pore Transwell bucket (purchased from Costar). […]"}, "[3]": {"system": "HIF-1α", "test": "Immunoblotting of HIF-1α in lymphatic endothelial cells", "settings": "mouse lymphatic endothelial cells, 100 ng/mL VEGF-C"}},
  "note": "Entries after “also recorded” stand apart in the source; their conditions may differ.",
  "data": [
    {"molecule": "B1", "values": [
      {"measurement": "chemokine receptor CXCR4 mRNA level", "setting": "[1]", "value": "significantly upregulated by about three times; also recorded: specifically up-regulated the expression of chemokine receptor CXCR4"},
      {"measurement": "migration of mouse lymphatic endothelial cells", "setting": "[2]", "value": "could promote the migration of mouse lymphatic endothelial cells"},
      {"measurement": "expression level of HIF-1α", "setting": "[3]", "value": "could indeed upregulate the expression level of HIF-1α; also recorded: could up-regulate the expression of CXCR4 and HIF-1α"}
    ]}
  ]
}
